Earlier results as cited in PMC9780825, “Combining mKate2-Kv1.3 Channel and Atto488-Hongotoxin for the Studies of Peptide Pore Blockers on Living Eukaryotic Cells” (Toxins, 2022).

How the values were obtained:
Kv1.3 (Mus musculus) = Kv1.3 (Mus musculus) (UniProt P16390); assay: whole-cell patch clamp
Kv1.3 (Homo sapiens) [1] = molecular target: Kv1.3 (Homo sapiens) (UniProt P22001); assay: two-electrode voltage clamp
[2] = molecular target: Kv1.3 (Rattus norvegicus) (UniProt P15384); assay: two-electrode voltage clamp
Chain of Kv1.3 (Rattus norvegicus) (P15384 whole entry): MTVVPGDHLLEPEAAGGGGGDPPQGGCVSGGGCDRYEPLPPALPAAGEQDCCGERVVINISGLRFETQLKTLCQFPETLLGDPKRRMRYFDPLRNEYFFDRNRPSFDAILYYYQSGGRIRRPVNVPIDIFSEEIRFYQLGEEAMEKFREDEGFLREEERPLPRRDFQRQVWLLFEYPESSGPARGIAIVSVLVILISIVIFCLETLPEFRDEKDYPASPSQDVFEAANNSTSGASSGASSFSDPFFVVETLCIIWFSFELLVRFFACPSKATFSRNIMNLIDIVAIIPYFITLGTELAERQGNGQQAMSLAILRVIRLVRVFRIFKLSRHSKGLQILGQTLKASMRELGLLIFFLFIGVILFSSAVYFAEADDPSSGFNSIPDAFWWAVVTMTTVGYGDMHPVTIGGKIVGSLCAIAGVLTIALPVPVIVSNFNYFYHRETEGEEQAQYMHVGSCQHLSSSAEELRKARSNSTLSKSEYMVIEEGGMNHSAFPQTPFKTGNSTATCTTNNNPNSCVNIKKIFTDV

Kv1.3 (Homo sapiens) [3] = molecular target: Kv1.3 (Homo sapiens) (UniProt P22001); assay: Rb+ efflux
Kv1.3 (Homo sapiens) [4] = molecular target: Kv1.3 (Homo sapiens) (UniProt P22001); assay: radioligand analysis

Chain of Kv1.3 (Mus musculus) (P16390 whole entry): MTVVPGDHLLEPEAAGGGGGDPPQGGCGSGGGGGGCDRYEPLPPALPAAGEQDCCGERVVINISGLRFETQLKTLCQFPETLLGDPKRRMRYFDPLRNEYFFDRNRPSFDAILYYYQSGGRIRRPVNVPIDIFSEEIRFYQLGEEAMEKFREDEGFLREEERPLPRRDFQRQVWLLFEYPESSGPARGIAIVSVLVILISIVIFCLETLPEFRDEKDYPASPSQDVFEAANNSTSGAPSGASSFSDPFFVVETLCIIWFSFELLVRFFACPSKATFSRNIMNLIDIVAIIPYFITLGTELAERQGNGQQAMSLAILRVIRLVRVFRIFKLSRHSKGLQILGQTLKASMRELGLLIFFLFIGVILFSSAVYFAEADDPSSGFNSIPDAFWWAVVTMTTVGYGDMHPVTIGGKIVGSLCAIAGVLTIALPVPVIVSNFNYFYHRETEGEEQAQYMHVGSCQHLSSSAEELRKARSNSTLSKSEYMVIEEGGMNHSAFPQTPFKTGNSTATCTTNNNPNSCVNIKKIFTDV
Chain of agitoxin 2 (P46111 whole entry): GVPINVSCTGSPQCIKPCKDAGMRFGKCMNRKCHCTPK
Chain of Kv1.3 (Homo sapiens) (P22001 whole entry): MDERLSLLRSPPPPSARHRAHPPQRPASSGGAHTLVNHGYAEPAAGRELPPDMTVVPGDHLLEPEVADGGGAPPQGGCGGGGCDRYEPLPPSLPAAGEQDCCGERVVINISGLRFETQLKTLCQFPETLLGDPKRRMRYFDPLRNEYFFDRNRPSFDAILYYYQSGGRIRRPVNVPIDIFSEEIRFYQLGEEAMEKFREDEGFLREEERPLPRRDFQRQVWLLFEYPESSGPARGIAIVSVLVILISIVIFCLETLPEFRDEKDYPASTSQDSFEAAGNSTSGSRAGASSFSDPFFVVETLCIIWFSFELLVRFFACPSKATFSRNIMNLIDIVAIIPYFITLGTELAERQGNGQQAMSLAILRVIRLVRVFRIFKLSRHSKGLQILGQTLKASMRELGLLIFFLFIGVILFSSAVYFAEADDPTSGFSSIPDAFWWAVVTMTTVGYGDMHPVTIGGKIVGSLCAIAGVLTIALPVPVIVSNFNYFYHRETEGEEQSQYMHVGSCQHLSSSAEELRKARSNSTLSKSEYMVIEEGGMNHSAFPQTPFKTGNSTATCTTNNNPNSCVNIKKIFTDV
Chain of hongotoxin 1 (P59847 whole entry): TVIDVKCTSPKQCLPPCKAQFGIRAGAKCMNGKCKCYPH
Chain of kaliotoxin 1 (P24662 whole entry): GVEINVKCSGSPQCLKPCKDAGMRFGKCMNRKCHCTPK
Chain of charybdotoxin (P13487 23-59): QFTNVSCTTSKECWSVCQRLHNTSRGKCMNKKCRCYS

Substance | Kd (Kv1.3 (Mus musculus)) [nM] | Kd (Kv1.3 (Homo sapiens) [1]) [nM] | Kd [2] [nM] | Kd (Kv1.3 (Homo sapiens) [3]) [nM] | Kd (Kv1.3 (Homo sapiens) [4]) [nM]
charybdotoxin (from UniProt P13487) | 3 | 0.9 | – | – | –
agitoxin 2 (from UniProt P46111) | 0.2 | 0.05 | 0.004 | – | –
hongotoxin 1 (from UniProt P59847) | – | – | – | 0.086 | 0.00024
kaliotoxin 1 (from UniProt P24662) | 0.65 | 0.01 | – | – | –
